The values below come from patent publication US20130295110A1.

The target of assay [1] is full length human PSMA (human) (UniProt Q04609). Put plainly: FACS, 15 ug/ml on LNCaP cells, PE goat anti-mouse IgG (control of FIG. 24 study). A general note: Flow cytometry measures light scatter and fluorescence of single cells or particles in a stream.
Assay [2] shares this target. Put plainly: FACS, 15 ug/ml on LNCaP cells, PE goat anti-mouse IgG (control of FIG. 13 study).
For assay [3] the target is unchanged. Description: FACS, 15 ug/ml on LNCaP cells, PE goat anti-mouse IgG (control of FIG. 19 study).
The target is the same in assay [4]. Description: FACS, 15 ug/ml on LNCaP cells, PE goat anti-mouse IgG (control of FIG. 29 study).

Sequence of full length human PSMA (human) (Q04609 whole entry): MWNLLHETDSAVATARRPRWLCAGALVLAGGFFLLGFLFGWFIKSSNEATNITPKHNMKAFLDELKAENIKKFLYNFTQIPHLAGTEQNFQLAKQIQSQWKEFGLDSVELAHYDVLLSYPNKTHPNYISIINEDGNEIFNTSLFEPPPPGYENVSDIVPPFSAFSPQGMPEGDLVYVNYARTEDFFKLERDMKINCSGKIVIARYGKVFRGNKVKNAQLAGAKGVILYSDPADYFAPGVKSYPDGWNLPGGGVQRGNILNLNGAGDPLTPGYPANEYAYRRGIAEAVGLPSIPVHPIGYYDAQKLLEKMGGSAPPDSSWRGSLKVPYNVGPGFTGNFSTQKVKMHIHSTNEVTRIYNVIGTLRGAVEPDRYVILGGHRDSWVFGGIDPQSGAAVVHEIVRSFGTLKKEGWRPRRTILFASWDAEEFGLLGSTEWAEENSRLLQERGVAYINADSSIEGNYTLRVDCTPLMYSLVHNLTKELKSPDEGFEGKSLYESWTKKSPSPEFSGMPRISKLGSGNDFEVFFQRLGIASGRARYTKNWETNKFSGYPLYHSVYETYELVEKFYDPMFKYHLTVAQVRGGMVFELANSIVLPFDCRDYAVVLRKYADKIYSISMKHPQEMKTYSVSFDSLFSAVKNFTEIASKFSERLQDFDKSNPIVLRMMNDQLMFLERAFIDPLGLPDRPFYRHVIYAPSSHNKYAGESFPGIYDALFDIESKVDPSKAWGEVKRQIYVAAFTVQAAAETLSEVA

As for “mouse anti-human PSMA monoclonal antibody, clone J591-A”, the fold change in MFI over secondary antibody alone in assay [1] amounted to 45.3 fold; in assay [3], 45.3 fold; in assay [4], 14.3 fold. In assay [2], this substance showed a fold-change in MFI over secondary antibody alone of 45.3 fold.
